This is an account of results in article PMC2830701 (The EMBO Journal, 2009).

This experiment concerns the target Bovine Hsc70 (1–554) (bovine, UniProt P19120 1-554). Briefly: co-sedimentation.

Bovine Hsc70 (1–554), sequence (P19120 1-554): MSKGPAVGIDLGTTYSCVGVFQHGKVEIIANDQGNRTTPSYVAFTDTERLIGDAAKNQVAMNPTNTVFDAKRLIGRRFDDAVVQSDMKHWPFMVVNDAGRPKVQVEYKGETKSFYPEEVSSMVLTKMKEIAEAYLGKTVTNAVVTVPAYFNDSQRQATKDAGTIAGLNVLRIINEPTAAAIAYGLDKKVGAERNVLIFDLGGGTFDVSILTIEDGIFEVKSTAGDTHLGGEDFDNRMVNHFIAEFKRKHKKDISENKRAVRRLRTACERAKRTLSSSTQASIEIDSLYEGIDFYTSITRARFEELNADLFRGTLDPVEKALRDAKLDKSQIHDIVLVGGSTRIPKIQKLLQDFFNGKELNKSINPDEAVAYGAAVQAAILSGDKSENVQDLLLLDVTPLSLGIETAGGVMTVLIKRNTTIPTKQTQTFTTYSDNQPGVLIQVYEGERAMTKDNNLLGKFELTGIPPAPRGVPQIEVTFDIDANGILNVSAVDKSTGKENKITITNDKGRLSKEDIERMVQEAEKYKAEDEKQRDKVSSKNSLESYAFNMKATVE

B1: Bovine auxilin (547–910) (domain or fragment, UniProt Q27974 547-910, looked up)
chain: PSGPTSTQSTPRRSATSTSASPTLRVGEGATFDPFGAPSKPSGQDLLGSFLNTASASSDPFLQPTRSPSPTVHASSTPAVNIQPDVSGAWDWHTKPGGFGMGSKSAATSPTGSSHGTPTHQNKPQTLDPFADLGTLGGSSFASKPSTPTGLGGGFPPLSSPQKASPQPMGGGWQQGGGYNWQQTQSKPQSSMPHSSPQNRPNYNVSFSSMPGGQNERGKAAANLEGKQKAADFEDLLSGQGFNAHKDKKGPRTIAEMRKEEMAKEMDPEKLKILEWIEGKERNIRALLSTMHTVLWAGETKWKPVGMADLVTPEQVKKVYRKAVLVVHPDKATGQPYEQYAKMIFMELNDAWSEFENQGQKPLY
B1: the binding result is “binds”.
